The text below walks through data of US8865222B2, “Beta-casein assemblies for enrichment of food and beverages and methods of preparation thereof” (Technion Research and Development Foundation Ltd., priority 2008, dated 2014).

Entries after “also recorded” stand apart in the source; their conditions may differ.

The nature of data set [1]: Cryo-TEM of beta-casein micelles and vitamin D loaded assemblies. It is filed as physicochemical. How it is done: • Cryo-TEM: Specimens were prepared in the controlled environment vitrification system (CEVS) (Bellare et al. Electron Microsc. Technique, 1988, 10; 87-111) at 24° C. and 100% relative humidity to avoid loss of volatiles. First, the solutions were incubated in the CEVS at the desired temperature for 1 h. Then, a 7 μL drop of each solution was placed on a TEM copper grid covered with a perforated carbon film (Pelco International) and blotted with filter paper to form a thin liquid film of the sample (100-200 nm thick). The thinned sample was plunged into liquid ethane at its freezing temperature (−183° C.) to form a vitrified specimen and then transferred to liquid nitrogen ([…]) for storage. The vitrified specimens were examined in a Philips CM120 transmission electron microscope operating at an accelerating voltage of 120 kV. We used an Oxford CT3500 (Oxford Instruments) cryoholder that maintained the specimens below −175° C. during sample transfer and observation. Images were recorded digitally on a cooled Gatan MultiScan 791 CCD camera using DigitalMicrograph 3.1 software (Gatan) in the low-dose imaging mode to minimize beam exposure and electron-beam radiation damage. • ITC: ITC measurements were performed with a VP-ITC calorimeter (MicroCal) at a temperature of 24° C. The reaction cell (V=1.43 mL) was filled with degassed solvent (lactic acid at pH 2.6, or phosphate buffer at pH 7.0). The injector-stirrer syringe (289 μL) was loaded with a beta-casein micellar solution (20 mg/mL). The micellar solution was injected into the reaction cell in 28 steps of 10 μL aliquots each, and the heat flow was measured. During the titration, the stirring speed was 310 rpm. The duration of each injection was 20 s, and the equilibration time between consecutive injections was 3 min. Such an interval was sufficient to equilibrate the reaction cell after every injection. Each experiment was performed at least three times. Calorimetric data analysis was carried out using Origin 5.0 software (MicroCal). • Analytical Ultracentrifugation: Sedimentation equilibrium experiments were performed at 24° C. using a Beckman Optima XL-A (Palo Alto, Calif.) analytical centrifuge at 6000, 10000, and 12000 rpm for the low-pH solutions and at 4000, 6000, and 8000 rpm for the pH 7.0 solutions. Data were collected at 280 nm. The beta-casein solutions were studied at concentrations ranging from 0.2 to 10.0 mg/mL at pH 2.6 and from 0.2 to 2 mg/mL at pH 7.0 and an ionic strength of 0.1. […] The average apparent molecular weight of the micelles at the various protein concentrations was calculated following methods well known in the art (The partial specific volume vj of the solute was taken to be 0.742 cm3/g3, and a solution density F of 1.0044 g/cm3 was measured). At beta-casein concentrations of 2 mg/mL and above under low pH conditions, the plot of the natural logarithm of the measured absorbance versus the square of the radius from the axis of rotation was not linear. To estimate Nagg, the limiting slope toward the outer edge of the sample cell was used to provide dln(c)/dr^2. The molecular weight calculated using this slope was divided by the monomer molecular weight calculated from the beta-casein amino acid sequence (24000).
• Characterization of the beta-casein micelles by cryo-TEM: The structural characteristics of the micelles in the two pH environments were studied by cryo-TEM and SAXS. Cryo-TEM was used to determine the shape of the micelles and to estimate their dimensions between 4 and 40° C. This information was further used to accurately calculate by SAXS the micelles' dimensions and to study how the size and shape are affected by temperature. SAXS measurements also provided the critical micelle concentration (CMC) and the micelle aggregation numbers as a function of temperature. […]

Data set [2] in a line: Storage stability of beta-casein assembly solutions. It is filed as physicochemical. The protocol: Preparation of beta-casein assemblies: weighted amounts of lyophilized bovine beta-casein are dissolved in low-pH solution (e.g. ˜6% by weight of lactic acid solution or hydrochloride acid solution, ˜pH 2.1), typically at concentrations ranging from 0.1 mg/mL up to at least 50 mg/ml, to the desired pH (2.5-2.8), below the pI. The pH can be adjusted to the desired values using appropriate buffers. Mixing is done at room temperature, and the solution is equilibrated at 4° C. for ˜36 hr, allowing complete solubilization and formation of the protein assemblies. Thereafter, the solutions can be held at any temperature between 1 and 60° C. Similarly, to prepare beta-casein micelles at neutral pH, weighted amounts of lyophilized protein are added to a buffer at neutral pH (e.g., HEPES buffer, or PBS), at concentration ranging from 0.1 mg/ml to ˜40 mg/ml. Complete solubilization of the protein is achieved within ˜36 hr, at 4° C. A transparent solution is obtained, containing unique nano-sized beta-casein assemblies. The protein solutions are filtered through a porous membrane of 0.45 micron pore size. The beta-casein concentration was determined by measuring the absorbance at 280 nm by an Ultrospec 2000 UV/Visible spectrophotometer (Pharmacia Biotech, England), using an extinction coefficient of 4.6(1%) mM^−1cm^−1. […]

The conditions of data set [3]: depending on temperature, pH, solvent composition and ionic strength (Portnaya 2006); cited from earlier work.
A short description of data set [4]: Dynamic light scattering (DLS) particle size. It is filed as physicochemical. The settings on record: pH 2.6, pure beta-casein, FIG. 12. How it is done: The pure beta-casein micelles remain small, below 80 nm, consistent with the fact the solution remains transparent.
The particle size distribution and the turbidity of a vitamin D loaded beta-casein micellar solutions at pH 7.0 and pH 2.5 as a function of beta-casein concentration are shown in FIGS. 15 and 16 respectively. Vitamin D concentration in this experiment was kept constant (82.5 μg/ml; 0.2 mM) and the beta-casein concentration was raised gradually from 0 to 2% by weight (0 to 0.8 mM). […] This value is relatively low and the solutions looked transparent to the human eye.

Data set [5] in a line: Turbidity (solution absorbance at 600 nm). It is filed as physicochemical. The settings on record: pH 2.6, empty assemblies, up to at least 2 wt %.
Setting [6] is: lactic acid solution pH 2.6, 4-40 °C.

B1: beta-casein: lyophilized bovine beta-casein (~24 kDa milk protein) self-assembled into nano-sized micelles at low or neutral pH (protein, UniProt P02666 16-224, looked up)
Beta-casein: RELEELNVPGEIVESLSSSEESITRINKKIEKFQSEEQQQTEDELQDKIHPFAQTQSLVYPFPGPIPNSLPQNIPPLTQTPVVVPPFLQPEVMGVSKVKEAMAPKHKEMPFPKYPVEPFTESQSLTLTDVENLHLPLPLLQSWMHQPHQPLPPTVMFPPQSVLSLSQSKVLPVPQKAVPYPQRDMPIQAFLLYQEPVLGPVRGPFPIIV
Take B1: the micelle shape entry in data set [1] (20 mg/mL, pH 6.7, 0.05M NaCl, 4 °C and 10 °C) is “Flat micelles”; in data set [1] (20 mg/mL, pH 6.7, 0.05M NaCl, 16, 25 and 40 °C), “oblate micelles”; in data set [1] (20 mg/mL, pH 6.7, 0.05M NaCl, 60 °C) it was “Relatively spheroidal micelles”; in data set [1] (setting [6]), “flat disk-like micelles”. Further, the “length of elongated surfaces of micelles” value in data set [1] (setting [6]) was 20-25 nm. In addition, the micelle thickness in data set [1] (setting [6]) was 3-4 nm. Also, in data set [1] (pH 2.6), the width of micelles entry was “about 3.5 nm”. The “colloidal / storage stability of sterile solution” value in data set [2] (sterile) is listed as “at least several months; also recorded: colloidally stable for months”. Moreover, the “storage stability of the solution” value in data set [2] (stored at 4 °C) is on record as “several weeks”. The “critical micelle concentration (CMC)” value in data set [3] is 0.05-0.2%. Further, the “mean size of the assemblies” value in data set [4] was “below 80 nm”. Further, the turbidity result in data set [5] is “does not vary significantly”.
